Data on two molecules can be found in US20120178139A1 (published 2012).

Test [1] deals with T1, mouse glycophorin-A on mouse erythrocytes (mouse, UniProt P14220 1-168). The test can be described thus: photo-crosslinking of biotinylated peptide to whole mouse erythrocytes, streptavidin pull-down and streptavidin Western blot. Here is the method: When whole erythrocytes were incubated with ERY1 peptide functionalized with biotin and a photoactivatable crosslinker, a single 28 kDa protein was conjugated with the peptide-biotin complex, as detected by a streptavidin Western blot (FIG. 2A). The reaction lysate was extensively washed and purified using streptavidin magnetic beads to ensure no unlabeled proteins from the erythrocyte lysate remained. […] The mismatch peptide, […] (SEQ ID NO:2), was designed to contain the same amino acid residues as ERY1, and to match its hydrophobicity topography. […] Anti-GYPA Western blotting of the same purified samples from the crosslinking reaction confirmed that the candidate biotinylated protein was indeed GYPA (FIG. 2B).
In brief, peptides were solubilized in PBS/DMF and reacted with 1.05 equivalents of Mts-atf-biotin overnight at 4° C. Following clarification of the reaction by centrifugation, biotinylated peptide was incubated with erythrocytes at in PBSA-50 for 1 h at 37° C., cells were washed twice in fresh PBS, and were UV irradiated at 365 nm for 8 min at room temperature. Cells were lysed by sonication and the lysate was purified using streptavidin-coated magnetic beads (Invitrogen). The eluate was run on an SDS-PAGE and transferred to a PVDF membrane, and immunoblotted with streptavidin-HRP(R&D Systems) or anti-mouse GYPA.

The target of test [2] is T1, mouse glycophorin-A on mouse …. Put plainly: equilibrium binding to mouse erythrocytes, flow cytometry, one-site binding fit.
For test [3] the target is unchanged. The test can be described thus: in vivo, geometric mean fluorescence of circulating erythrocytes by flow cytometry, one-phase exponential decay. The procedure:
Consistent with glycophorin-A association, ERY1-OVA bound to erythrocytes (CD45⁻) but not to leukocytes (CD45⁺). ERY1-OVA binding was unbiased as to the apoptotic state of the erythrocytes, binding strongly to both annexin-V⁺ and annexin-V⁻ CD45⁻ populations (FIG. 9b).
150 μg of ERY1-OVA or OVA in 0.9% saline (B. Braun) in a volume of 100 μL was injected intravenously into the tail of 8-12 week old female C57BL/6 mice while under anesthesia with isoflurane. Care was taken to ensure mice were kept at 37 C with a heating pad during experimentation. At predetermined time points, 5 μL of blood was taken from a small incision on the tail, diluted 100-fold into 10 mM EDTA in PBS, washed three times with PBS with 10 mg/mL BSA, and analyzed for OVA content by flow cytometry and ELISA. OVA was quantified by sandwich ELISA, using a mouse monoclonal anti-OVA antibody (Sigma) for capture, a polyclonal rabbit anti-OVA antibody (AbD SEROTEC) for detection, a goat anti-rabbit-IgG-HRP antibody (BioRad) for final detection, followed by TMB substrate (GE Life Sciences). Hematological characterization was performed on an ADVIVA 2120 Hematology System (Siemens). Erythrocyte-bound ERY1-GST was detected by incubating labeled cells with goat anti-GST (GE Healthcare Life Sciences), followed by incubation with AlexaFluor488 donkey anti-goat (Invitrogen), and analyzed by flow cytometry. […]

Regarding H-PLLTVGMDLWPWGGSGCRG-NH2 (not fully specified (residue 17); also: conjugated to Mts-Atf-biotin, Same amino acids as ERY1, scrambled) [mismatch peptide, soluble, biotinylated (H2N-PLLTVGMDLWPWGGSGCRG-CONH2 conjugated to Mts-Atf-biotin)], in test [1], the binding result is given as “no binding”.

B1: ERY1-OVA (ovalbumin chemically conjugated with ERY1 peptide through SMCC) (other)
chain: GSIGAASMEFCFDVFKELKVHHANENIFYCPIAIMSALAMVYLGAKDSTRTQINKVVRFDKLPGFGDSIEAQCGTSVNVHSSLRDILNQITKPNDVYSFSLASRLYAEERYPILPEYLQCVKELYRGGLEPINFQTAADQARELINSWVESQTNGIIRNVLQPSSVDSQTAMVLVNAIVFKGLWEKAFKDEDTQAMPFRVTEQESKPVQMMYQIGLFRVASMASEKMKILELPFASGTMSMLVLLPDEVSGLEQLESIINFEKLTEWTSSNVMEERKIKVYLPRMKMEEKYNLTSVLMAMGITDVFSSSANLSGISSAESLKISQAVHAAHAEINEAGREVVGSAEAGVDAASVSEEFRADHPFLFCIKHIATNAVLFFGRCVSP
peptide: WMVLPWLPGTLDGGSGCRG
modifications: C-terminal amide; cysteine side chain conjugated via SMCC to lysines of OVA; lysine side chains carry SMCC linked to the cysteine of the ERY1 peptide
notes: also called ERY1-conjugated antigen
In turn, B1 gave a Kd in test [2] of 6.2 nM. Also, the cell-surface half-life in test [3] came out at 17.2 h.
